# “And” between values parts separate entries of the source, which are not always exact repeats. Equal values may be shown once.
# Molecular target: Tailless ΔHoc T4 phage capsids (bacteriophage T4) (UniProt P19896)
# Test: native gel or EMSA; Mal–Hoc mixed with ΔHoc T4 capsids at a series of molar ratios; 22°C for 2 h or overnight (16 h) in PBS with 10 mM MgCl2; 1% agarose, 100 V for 2 h, 1x Tris–Acetate–EDTA; GelCode blue protein stain
substance,measurement,value
Maltase–SC–St–Hoc fusion (complex),stoichiometry N (Mal–Hoc per capsid),60 to 120 (2×) and 90
